Data taken from US20240092919A1.

B1: A022600131 (protein)
chain: DVQLVESGGGVVQPGGSLRLSCVASGYVHKINFYGWYRQAPGKEREKVAHISIGDQTDYADSAKGRFTISRDESKNTVYLQMNSLRPEDTALYYCRALSRIWPYDYWGQGTLVTVSSGGGGSEVQLVESGGGLVQPGGSLRLSCVASGFTFSSFAMTWVRRPPGKGLEWVATITNGGVTSYRDSVKGRFTISRDNAKNTLYLEMTSLNPEDTAVYICANARRTGPRAPTDIGSYRGQGTLVTVSSGGGGSGGGGSGGGGSGGGGSEVQLVESGGGLVQPGGSLRLSCVASGSIFRSVFSSSTMEWYRQPPGKKRELVARIAPGDGTNYGALYADSVKGRFTISRDDAKKTVDLQMNSLKPEDTGVYFCASGVAWGQGTLVTVSSGGGGSGGGGSGGGGSGGGGSGGGGSGGGGSGGGGSEVQLVESGGGVVQPGGSLRLSCAASGFTFRSFGMSWVRQAPGKGPEWVSSISGSGSDTLYADSVKGRFTISRDNSKNTLYLQMNSLRPEDTALYYCTIGGSLSRSSQGTLVTVSSA
B2: A022600104 (protein)
chain: DVQLVESGGGVVQPGGSLRLSCVASGYVHKINFYGWYRQAPGKEREKVAHISIGDQTDYADSAKGRFTISRDESKNTVYLQMNSLRPEDTALYYCRALSRIWPYDYWGQGTLVTVSSGGGGSGGGSEVQLVESGGGLVQPGGSLRLSCVASGFTFSSFAMTWVRRPPGKGLEWVATITNGGVTSYRDSVKGRFTISRDNAKNTLYLEMTSLNPEDTAVYICANARRTGPRAPTDIGSYRGQGTLVTVSSGGGGSGGGGSGGGGSGGGGSGGGGSGGGGSGGGGSEVQLVESGGGVVQPGGSLRLSCAASGFTFRSFGMSWVRQAPGKGPEWVSSISGSGSDTLYADSVKGRFTISRDNSKNTLYLQMNSLRPEDTALYYCTIGGSLSRSSQGTLVTVSSA
B3: A022600122 (protein)
chain: DVQLVESGGGVVQPGGSLRLSCVASGYVHKINFYGWYRQAPGKEREKVAHISIGDQTDYADSAKGRFTISRDESKNTVYLQMNSLRPEDTALYYCRALSRIWPYDYWGQGTLVTVSSGGGGSEVQLVESGGGLVQPGGSLRLSCVASGFTFSSFAMTWVRRPPGKGLEWVATITNGGVTSYRDSVKGRFTISRDNAKNTLYLEMTSLNPEDTAVYICANARRTGPRAPTDIGSYRGQGTLVTVSSGGGGSGGGGSGGGGSGGGGSGGGGSGGGGSGGGGSEVQLVESGGGLVQPGGSLRLSCVASGSIFRSVFSSSTMEWYRQPPGKKRELVARIAPGDGTNYGALYADSVKGRFTISRDDAKKTVDLQMNSLKPEDTGVYFCASGVAWGQGTLVTVSSGGGGSGGGGSGGGGSGGGGSGGGGSGGGGSGGGGSEVQLVESGGGVVQPGGSLRLSCAASGFTFRSFGMSWVRQAPGKGPEWVSSISGSGSDTLYADSVKGRFTISRDNSKNTLYLQMNSLRPEDTALYYCTIGGSLSRSSQGTLVTVSSA
B4: A022600105 (protein)
chain: DVQLVESGGGVVQPGGSLRLSCVASGYVHKINFYGWYRQAPGKEREKVAHISIGDQTDYADSAKGRFTISRDESKNTVYLQMNSLRPEDTALYYCRALSRIWPYDYWGQGTLVTVSSGGGGSGGGGSGGGGSGGGGSEVQLVESGGGLVQPGGSLRLSCVASGFTFSSFAMTWVRRPPGKGLEWVATITNGGVTSYRDSVKGRFTISRDNAKNTLYLEMTSLNPEDTAVYICANARRTGPRAPTDIGSYRGQGTLVTVSSGGGGSGGGGSGGGGSGGGGSGGGGSGGGGSGGGGSEVQLVESGGGVVQPGGSLRLSCAASGFTFRSFGMSWVRQAPGKGPEWVSSISGSGSDTLYADSVKGRFTISRDNSKNTLYLQMNSLRPEDTALYYCTIGGSLSRSSQGTLVTVSSA
B5: A022600102 (protein)
chain: DVQLVESGGGVVQPGGSLRLSCVASGYVHKINFYGWYRQAPGKEREKVAHISIGDQTDYADSAKGRFTISRDESKNTVYLQMNSLRPEDTALYYCRALSRIWPYDYWGQGTLVTVSSAAAEVQLVESGGGLVQPGGSLRLSCVASGFTFSSFAMTWVRRPPGKGLEWVATITNGGVTSYRDSVKGRFTISRDNAKNTLYLEMTSLNPEDTAVYICANARRTGPRAPTDIGSYRGQGTLVTVSSGGGGSGGGGSGGGGSGGGGSGGGGSGGGGSGGGGSEVQLVESGGGVVQPGGSLRLSCAASGFTFRSFGMSWVRQAPGKGPEWVSSISGSGSDTLYADSVKGRFTISRDNSKNTLYLQMNSLRPEDTALYYCTIGGSLSRSSQGTLVTVSSA
B6: A022600096 (protein)
chain: DVQLVESGGGLVQPGGSLRLSCVASGYVHKINFYGWYRQAPGKEREKVAHISIGDQTDYADSAKGRFTISRDESKNTVYLQMNSLRPEDTALYYCRALSRIWPYDYWGQGTLVTVSSGGGGSGGGGSGGGGSGGGGSGGGGSGGGGSGGGGSEVQLVESGGGLVQPGGSLRLSCVASGFTFSSFAMTWVRRPPGKGLEWVATITNGGVTSYRDSVKGRFTISRDNAKNTLYLEMTSLNPEDTAVYICANARRTGPRAPTDIGSYRGQGTLVTVSSGGGGSGGGGSGGGGSGGGGSGGGGSGGGGSGGGGSEVQLVESGGGVVQPGGSLRLSCAASGFTFRSFGMSWVRQAPGKGPEWVSSISGSGSDTLYADSVKGRFTISRDNSKNTLYLQMNSLRPEDTALYYCTIGGSLSRSSQGTLVTVSSA
B7: A022600103 (protein)
chain: DVQLVESGGGVVQPGGSLRLSCVASGYVHKINFYGWYRQAPGKEREKVAHISIGDQTDYADSAKGRFTISRDESKNTVYLQMNSLRPEDTALYYCRALSRIWPYDYWGQGTLVTVSSGGGGSEVQLVESGGGLVQPGGSLRLSCVASGFTFSSFAMTWVRRPPGKGLEWVATITNGGVTSYRDSVKGRFTISRDNAKNTLYLEMTSLNPEDTAVYICANARRTGPRAPTDIGSYRGQGTLVTVSSGGGGSGGGGSGGGGSGGGGSGGGGSGGGGSGGGGSEVQLVESGGGVVQPGGSLRLSCAASGFTFRSFGMSWVRQAPGKGPEWVSSISGSGSDTLYADSVKGRFTISRDNSKNTLYLQMNSLRPEDTALYYCTIGGSLSRSSQGTLVTVSSA

Each binder was assayed against human GPC3 on cells (human) (UniProt P51654) (assay: cell-based or functional assay).

| Binder | IC50 (M), Incucyte human TDC HepG2-Nuclight green assay, E:T 15:1 (Step 2) [M] | Max % Killing, Incucyte human TDC HepG2-Nuclight green assay (Step 2) [%] | IC50 (M), Incucyte human TDC HepG2-Nuclight green assay, E:T 15:1, 72 h [M] | Max % Killing, Incucyte human TDC HepG2-Nuclight green assay, 72 h [%] | HepG2 on Incucyte IC50 (M), human TDC, E:T 15:1, 60 h [M] | HepG2 on Incucyte Max % killing, 60 h [%] | Huh7 on xCELLigence IC50 (M), human TDC, E:T 15:1, 60 h [M] | Huh7 on xCELLigence Max % killing, 60 h [%] |
| --- | --- | --- | --- | --- | --- | --- | --- | --- |
| B1 | 4.44e-10 | 94 |  |  |  |  |  |  |
| B2 |  |  | 2.13e-09 | 90 |  |  |  |  |
| B3 | 4.45e-10 | 92 |  |  | 5.3e-10 | 93 | 2.61e-10 | 101 |
| B4 |  |  | 2.14e-09 | 85 |  |  |  |  |
| B5 |  |  | 1.72e-09 | 94 |  |  |  |  |
| B6 |  |  | 1.4e-09 | 72 |  |  |  |  |
| B7 | 5.43e-10 | 90 | 2.04e-09 | 92 | 1.23e-09 | 96 | 7.11e-09 | 71 |
